Series [1] can be described thus: Non-reducing SDS-PAGE of rhPDGF-BB eluted from human FDBA. It counts as physicochemical. The settings on record: data not shown. As to the method: (§1) In particular, PDGF (0.5 ml of 0.3 mg/ml) was incubated with the freeze-dried bone graft (˜0.5 ml) and mixed for 10 minutes, 60 minutes, or overnight at room temperature. Then 1 mL of 1 M NaCl was added as described above for FIG. 1. The final NaCl concentration was 667 mM. PDGF was separated from the bone graft by centrifugation at 15,334×g for 2 minutes and the supernatant containing PDGF was analyzed by SEC, RPHPLC, ELISA, and non-reducing SDS-PAGE. […] Released PDGF was measured using a standard ELISA assay. The ELISA assay was performed using Quantikine® Human PDGF-BB Immunoassay from R&D Systems, Inc. according to the manufacturer's protocol (see, for example, world wide web at rndsystems.com/pdf/dbb00.pdf). Briefly, a receptor for human PDGF-BB was coated onto a plate, then PDGF was bound and evaluated with a secondary antibody-HRP conjugate and the chromogen tetramethylbenzidine for detection. […] Alternatively, the concentrations of the rhPDGF-BB in supernatants were determined using the size exclusion HPLC (SEC) on TOSOH Biosep TSK-Gel, 7.8 mm×3 cm HPLC column and TOSOH Biosep TSK-Gel, 6.0 mm×4.0 cm precolumn (Tosoh Bioscience, San Francisco, Calif.) by integration of the elution profile of PDGF and using calibration at 5 different concentrations of standard PDGF as shown in FIG. 4C.

A short description of series [2]: Binding and release of PDGF from human bone graft (salt elution; ELISA / SEC). The format is physicochemical. As to the method:
FIG. 1 summarizes an exemplary protocol for studying the binding and release of PDGF from bone graft. For some experiments, the amounts were scaled down two or ten times to preserve the bone graft materials. In particular, 100 μl of human bone graft (LifeNet, Inc.) was mixed with 100 μl of PDGF at a concentration of 0.3 mg/mL in 20 mM NaOAc, pH 6.0 for ten minutes. The bone graft consisted of dry particles. The bone graft was freeze-dried before being sold (referred to as freeze-dried bone allograft, or FDBA). Then, 200 μl of NaCl (at various concentrations) in 20 mM NaOAc, pH 6.0 or phosphate buffered saline (PBS) (without NaOAc) was added. The solution was then incubated for either 1 hour or 24 hours. PDGF in solution was separated from insoluble human bone graft by centrifugation at ˜2000×g for 5 minutes at 4° C., and then the amount of rhPDGF-BB released from the matrix was determined by colorimetric ELISA Quantikine assy (R & D Systems, Minneapolis, Minn.) using plates coated with the receptor to human PDGF-BB.
as §1, with “The final NaCl concentration was 667 mM.” left out, “The ELISA assay was performed using Quantikine® Human PDGF-BB Immunoassay from R&D Systems, Inc. according to the manufacturer's protocol (see, for example, world wide web at rndsystems.com/pdf/dbb00.pdf).” left out, “4C. […]” for “4C.”
(In an ELISA, binding on a coated surface is turned into a signal by an enzyme label.)

For a further series, the system named is MG-63 cells. Description: MG-63 cell-based bioassay of rhPDGF eluted from FDBA. The following applies: eluted from FDBA with NaCl after ten minutes; data not shown.
The nature of series [3]: PDGF release from washed demineralized bone graft (ELISA). The format is physicochemical. As to the method:
The washes were conducted as follows. The bone graft sample (−0.1 g) was placed in a small plastic tube and then either 1.0 ml of water, saline solution, or elution buffer was added to the sample. The mixture was allowed to sit at room temperature for 5 minutes with occasional gently mixing by hand. At the end of the 5 minutes, the fluid was pulled off the bone graft material using a pipet, and the remaining fluid was removed by compressing the material with a sterile cotton Q-tip applicator. Following this, a solution of 0.3 mg/ml rhPDGF-BB was added to the washed bone graft and samples were removed for quantification of PDGF by ELISA over 60 minutes.

With “rhPDGF-BB: recombinant human platelet-derived growth factor BB”, the “electrophoretic comparison with control rhPDGF-BB” value in series [1] is recorded as “electrophoretically indistinguishable”. For the same substance, in series [2] (MEM and acetic acid in place of NaCl), the “PDGF release from freeze-dried bone graft with other compounds” value is listed as “release of some PDGF”. In addition, the “PDGF released from bone graft by salt incubation” value in series [2] (NaCl up to 1.5 M or PBS, 1 hour or 24 hours, ELISA) is listed as “significant amount of PDGF was released”. For the same substance, the “rhPDGF-BB bound to the bone graft matrix recovered from the bone graft” value in series [2] (mixture of rhPDGF-BB and bone graft washed with a low ionic strength buffer) is “less than 10%”. Moreover, the “biopotency compared to a control sample of rhPDGF-BB” value in the series on MG-63 cells was “retained its biopotency”. Moreover, the “amount of PDGF released from DM bone graft” value in series [3] (bone graft washed 5 minutes in saline) is “More PDGF was released”; in series [3] (bone graft washed in elution buffer), “somewhere in the middle between water and saline washes”. Further, in series [3] (bone graft washed 5 minutes in sterile water), the “amount of PDGF released from DM bone graft at the end of the 60 minute study” value is on record as “decrease”.

The values are drawn from US20100196347A1, “BONE GRAFTS WITH REDUCED PROTEASE ACTIVITY AND METHODS OF SELECTION AND USE” (priority 2008, published 2010).
